Assay results reported in patent publication US20210198347A1 (Chugai, published 2021).
One block for each binder: values may come before it.

Molecular target: T1, recombinant human C1r2s2 Flag/His tetramer (human, UniProt P09871 16-688; P00736 18-705)
T1 construct: whole entries named; also called hc1r2s2; rC1r2s2
T1 chain 1: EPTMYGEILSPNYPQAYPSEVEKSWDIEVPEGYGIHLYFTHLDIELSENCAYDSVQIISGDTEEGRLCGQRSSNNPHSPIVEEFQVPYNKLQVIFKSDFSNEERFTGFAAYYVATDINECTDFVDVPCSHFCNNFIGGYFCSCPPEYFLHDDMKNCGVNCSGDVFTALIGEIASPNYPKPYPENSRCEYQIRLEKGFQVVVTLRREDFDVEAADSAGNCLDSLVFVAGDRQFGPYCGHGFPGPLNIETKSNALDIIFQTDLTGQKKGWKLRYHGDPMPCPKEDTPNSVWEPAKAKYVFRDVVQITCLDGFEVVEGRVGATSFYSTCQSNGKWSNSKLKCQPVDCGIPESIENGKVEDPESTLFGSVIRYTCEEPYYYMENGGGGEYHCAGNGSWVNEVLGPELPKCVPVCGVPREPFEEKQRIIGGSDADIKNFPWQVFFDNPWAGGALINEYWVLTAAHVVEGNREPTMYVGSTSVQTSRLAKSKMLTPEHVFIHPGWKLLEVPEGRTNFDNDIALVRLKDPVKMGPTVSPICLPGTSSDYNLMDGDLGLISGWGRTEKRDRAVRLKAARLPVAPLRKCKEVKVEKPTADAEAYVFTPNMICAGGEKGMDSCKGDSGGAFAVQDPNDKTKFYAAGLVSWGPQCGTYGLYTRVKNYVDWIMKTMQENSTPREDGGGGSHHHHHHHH
T1 chain 2: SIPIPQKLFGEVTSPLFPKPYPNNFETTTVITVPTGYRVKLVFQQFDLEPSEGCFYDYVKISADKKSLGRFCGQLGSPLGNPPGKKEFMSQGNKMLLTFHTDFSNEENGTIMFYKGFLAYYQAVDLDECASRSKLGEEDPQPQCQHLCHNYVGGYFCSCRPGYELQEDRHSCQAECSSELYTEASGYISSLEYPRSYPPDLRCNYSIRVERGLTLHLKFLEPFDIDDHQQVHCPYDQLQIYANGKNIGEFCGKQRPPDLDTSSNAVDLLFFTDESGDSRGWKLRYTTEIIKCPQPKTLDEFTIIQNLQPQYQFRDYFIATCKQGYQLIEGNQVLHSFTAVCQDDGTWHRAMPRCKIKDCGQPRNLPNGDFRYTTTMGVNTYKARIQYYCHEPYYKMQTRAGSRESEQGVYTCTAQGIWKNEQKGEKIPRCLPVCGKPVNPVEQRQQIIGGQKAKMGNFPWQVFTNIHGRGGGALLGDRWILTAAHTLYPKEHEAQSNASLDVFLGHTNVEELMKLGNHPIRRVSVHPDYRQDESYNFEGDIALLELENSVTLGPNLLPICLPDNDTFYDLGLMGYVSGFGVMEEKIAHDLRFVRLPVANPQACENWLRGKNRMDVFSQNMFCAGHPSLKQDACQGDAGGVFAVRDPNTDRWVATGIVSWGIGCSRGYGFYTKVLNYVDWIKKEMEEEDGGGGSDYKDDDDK
Test: SPR displacement (37 degrees C, pH 7.4): C1r2s2 captured by anti-His, C1q 100 nM pre-bound, antibody 500 nM at 10 micro L/min; time from antibody injection until the antibody sensorgram falls below the buffer sensorgram; competitor native human C1q
Protocol: An anti-His antibody (GE-Healthcare) was immobilized onto all flow cells of a CM4 sensor chip using an amine coupling kit (GE Healthcare). The antibodies, recombinant human C1r2s2 Flag/His tetramer and native human C1q (Comptech A099) were prepared in pH 7.4 buffer (20 mM ACES, 150 mM NaCl, 1.2 mM CaCl₂, 1 mg/mL BSA (IgG-free), 1 mg/mL CMD, 0.05% Tween 20, 0.005% NaN₃, pH 7.4). Recombinant human C1r2s2 Flag/His tetramer was first captured onto the sensor surface by the anti-His antibody (“hc1r2s2” in FIG. 2A). The capture levels were aimed at 200 resonance unit (RU). Native human C1q was injected at 100 nM to have a capture of 200 RU (“hc1q” in FIG. 2A), followed by antibody injection at 500 nM at 10 micro L/min for 1200 sec immediately. The sensor surface was regenerated each cycle with 10 mM Glycine-HCl (pH 1.5). For the antibodies with the C1q displacement function, the response unit of Sensorgram 2 (large dotted line; “C1r2s2+C1q+Ab” in FIGS. 2A and 2C) is lower than the response unit in Sensorgram 1 (small dotted line; “C1r2s2+C1q+buffer” in FIGS. 2A and 2C) after the time point where Sensorgrams 1 and 2 cross (“time point of crossover”). Depending on the time when Sensorgram 2 crosses over Sensorgram 1, COS0499 was categorized as a fast displacement variant. […] COS0448 was in the middle of fast displacement and slow displacement.
The time point of crossover is identified by subtraction of the buffer response (Sensorgram 1) from the antibody (Ab) response (Sensorgram 2), and referring to the time point when the differential value changes from positive to negative (Table 4). The time from the start of Ab injection is indicated in Table 4 as “time point of crossover”.

Time point of crossover (post-injection): 736 s
B1: COS0631gg-SG1148 (antibody, human IgG1, kappa, V domains shown)
VH: QSVEESGGRLVTPGTPLTLTCTVSGFSLSRYSMGWVRQAPGKGLEWIGIIYADGGAYYASWAKGRFTISKTSTTMDLKVTSPTTEDTATYFCARGQFINSNEFFNPWGPGTLVTVSS
VL: QVLTQTASSVSAVVGGTVTINCQASQSLHNNKNLAWYQQKPGQPPRLLIYYASTLASGVSSRFKGSGSGTQFTLTISDLECDDAATYYCAGEFSCSNGDCNAFGGGTKVEIKR

Time point of crossover (post-injection): 764 s
B2: COS0637cc-SG1148 (antibody, human IgG1, kappa, V domains shown)
VH: QSLEESGGRLVTPGTPLTLTCTASGFSLSAYAMNWVRQAPGKGLEWIGLIYGSGSTFYASWAKGRFTISKTSTTVDLKMTSLTTEDTATYFCARGRSVNYNSDFKLWGPGTLVTVSS
VL: QVLTQTPSSVSAAVGGTVTINCQASQSLHDKKNLAWYQHKPGQRPNLLIYGASTLESGVPSRFKGSGSGTEYTLTISDLECDDAAAYYCQGEFSCSSADCNTFGGGTKVEIKR

Time point of crossover (post-injection): 169 s
B3: COS0448oo-SG1148 (antibody, human IgG1, kappa, V domains shown)
VH: QSVEESGGRLVTPGTPLTLTCTVSGFSLSNYGMIWVRQAPGEGLEYIGFVSGSGSAYYANWVKGRFTISKTSTTVDLKMTSLTTEDTATYFCARGAYNTDSYSYSLYYGMDLWGPGTLVTVSS
VL: QIVMTQTPASVEVAVGGTVTIKCQASQSIYSYLSWYQQKPGQPPKLLIYGASTLASGVPSRFKGSRSGTEFTLTISDLECADAATYYCQSNYATTTTYGTFGGGTKVEIKR
notes: Rabbit B-cell derived variable regions; also called COS448; COS44800(-SG1148)

Time point of crossover (post-injection): 61.9 s
B4: COS0499ee-SG1148 (antibody, human IgG1, kappa, V domains shown)
VH: QSLEESGGRLVTPGTPLTLTCTASGFSLSNYNMAWVRQAPGKGLEWIGIIETTTNTYYARWARGRFTISKTSSTTVDLQIASPTTEDTATYFCGRRVSNSHDLWGPGTLVTVSS
VL: AYDMTQTPASVSAAVGGTVTINCQASQTIGGWCAWYQQKPGQPPKLLIYKASTLASGVSSRFKGSGSGTEFALTISDLECDDAATYYCQHGYYTSSTIENTFGGGTKVEIKR
notes: also called COS499; COS499ee(-SG1148)

Time point of crossover (post-injection): 542 s
B5: COS0547gg-SG1148 (antibody, human IgG1, kappa, V domains shown)
VH: QSLEESGGRLVTPGTPLTLTCTASGFSLSSYHMDWVRQAPGKGLEWIGIITYTGDTYYATWAKGRFTISKTSSTTVDLKMASLTTEDTATYFCARRQYDAYNVWGPGTLVTVSS
VL: AYDMTQTPASVEVAVGGTVTIKCQASQSINNYLAWYQQKPGQPPKLLIYYASTLASGVPSRFKGSRSGTEFTLTISGVECADAATYYCQHGYYTSSNIDSVFGGGTKVEIKR
